This note sets out measurements from PMC7534572.

Assay [1] concerns the target HpiI (Hymenoscyphus scutula). The assay can be described thus: crystal structure.
For assay [2], the target named is PdxI (Aspergillus bombycis). The assay can be described thus: crystal structure.

HpiI (enzyme): the stoichiometry N in assay [1] stood at 2.

As for PdxI (enzyme), the stoichiometry N in assay [2] came out at 2.

As usually defined, the stoichiometry N is the number of molecules, sites or subunits per partner or assembly.
